Values of other authors as cited in publication PMC11769735.
Read-outs that look alike come from different tables or passages of the source.

Legend:
[1] = target: ADP-actin filament barbed end (UniProt P68133)
G-actin [2] = target: G-actin (UniProt P68133)
G-actin [3] = target: G-actin (UniProt P68133); remark: listed apart in the source

Twinfilin (from UniProt Q91YR1)
Kd [1]: 13 nM

Twinfilin C-ADF-H (from UniProt Q91YR1)
Kd (G-actin [2]): 50 nM

Twinfilin N-ADF-H (from UniProt Q91YR1)
Kd (G-actin [3]): 700 nM
